Reference: US20260069689A1 (Regeneron, published 2026)
Changes are numbered by the printed parent chain.

B1: mAb14233 (antibody)
heavy: not shown
light: SYELTQPPSVSVSPGQTARITCSGDVLAKLYAYWYQHKPGQAPVLVIYKDSERPSGIPERFSGSSSGTTVTLTISGVQAEDEADYYCQSADSSGSLWVFGGGTKLTVLGQPKAAPSVTLFPPSSEELQANKATLVCLISDFYPGAVTVAWKADSSPVKAGVETTTPSKQSNNKYAASSYLSLTPEQWKSHRSYSCQVTHEGSTVEKTVAPTECS
B2: mAb14259 (antibody)
heavy: not shown
light: DIVMTQSPLSLPVTPGEPASISCRSSQTLLHSNGYNYLDWYLQKPGQSPQLLIHLGSNRASGVPDRFSGSGSVTDFTLKISRVEAEDVGVYYCMQALQTPYTFGQGTKLEIKRTVAAPSVFIFPPSDEQLKSGTASVVCLLNNFYPREAKVQWKVDNALQSGNSQESVTEQDSKDSTYSLSSTLTLSKADYEKHKVYACEVTHQGLSSPVTKSFNRGEC
B3: mAb14287 (antibody)
heavy: not shown
light: QSALTQPASVSGSPGQSITISCTGTSSDVGSYNLVSWYQQHPGKAPKLMIYEVSKRPSGVSNRFSGSKSGNTASLTISGLQAEDEADYYCSSYAGSRREVFGGGTKLTVLGQPKAAPSVTLFPPSSEELQANKATLVCLISDFYPGAVTVAWKADSSPVKAGVETTTPSKQSNNKYAASSYLSLTPEQWKSHRSYSCQVTHEGSTVEKTVAPTECS
B4: mAb14288 (antibody)
heavy: not shown
light: QSVLTQPPSVSAAPGQKVTISCSGSSSNIGNNYVSWYQQLPGTAPKLLIYENNKRPSGIPDRFSGSKSGTSATLGITGLQTGDEADYYCGTWDSSLSAGQGVFGGGTKLTVLGQPKAAPSVTLFPPSSEELQANKATLVCLISDFYPGAVTVAWKADSSPVKAGVETTTPSKQSNNKYAASSYLSLTPEQWKSHRSYSCQVTHEGSTVEKTVAPTECS
B5: mAb15150 (antibody, V domains shown)
VH: EVQLVETGGGLIQPGGSLRLSCAAPGFIVSSNYMSWVRQAPGKGLEWVSLLYPGGSTYYADSVKGRFTISRDNSKNTLYLQMNSLRADDTAVYYCARVLPIVEDHFDYWGQGTLVTVSS
VL: DIQLTQSPSFLSASVGDRVTITCRASQGMSSYLAWYQKKPGKAPKLLIYGATILQSGVPSRFSGSGSGTEFTLTISSLQPEDFATYYCQQLNSDPLYMYTFGQGTKLEIKR
B6: mAb15151 (antibody, V domains shown)
VH: QVQLVESGGGVVQPGRSLRLSCAASGFVFNSYGMHWVRQAPGKGLEWVAVLWYEGSKNYYADSVKGRFTISRDNSKNTLYLQMNSLRAEDTAVYYCARHGSGSFFGYYLDYWGQGTLVTVSS
VL: DIQMTQSPSSLSASVGDRVTITCRASHNINDFLNWYQQKPGKAPRLLIYAASSLQSGVPSRFSGSGSGTDFTLTISSLQPEDFATYYCQESYTTPPTFGQGTKLEIKR
B7: mAb14284 (antibody, V domains shown)
VH: QITLKESGPTLVKPTQTLTLTCTFSGFSFSTSGVGVGWIRQPPGKTLEWLALIYWDDDKRYSPSLKSRLTITKDTSKNQVVLTMTNMDPVDTATYFCAHHGIPTIFGYWGQGALVTVSS
VL: QSALTQPASVSGSPGQSITISCTGTSSDLGVFNYVSWYQQHPGKAPKLMIYEVTNRPSGVSNRFSGSKSGNTASLTISGLQAEDEADYYCSSYTTSSTVFGGGTKLTVLG
B8: mAb14258 (antibody, V domains shown)
VH: QLQLQESGPGLVKPSETLSLICTGSGDSISSSHYYWGWIRQPPGKGLEWIGSTYFSGSTYYNPSLKSRVSISVDTSKNQVSLKLISVTAADTAVYYCAREMGATLGDYWGPGTLVTVSS
VL: QSVLTQPPSASGTPGQRVTISCSGSSSNIGNNYVYWYQQFPGTTPRLLIYRNNERPSGVPDRFSGSKSGTSASLVISGLRSEDEADYYCAAWDDSLSAHYVFGTGTKVTVLG
B9: mAb14294 (antibody, V domains shown)
VH: EVQLVESGGGLVQPGGSLRLSCAASGFTFSNHWMDWVRQAPGKGLVWVSRINSDGSSTDYADSVRGRFTMSRDNAKNTLYLQMSSLRAEDTAVYYCAREGMIFGAVIIPGWYFDLWGRGALVTVSS
VL: EIVLTQSPGTLSLSPGERATLSCRASQSVSSSQLAWYQQKPGQAPRLLIYGASSRATGIPDRFSGSGSGTDFTLTISRLEPEDFAVYYCQQYDSFGQGTKLEIKR
B10: mAb14283 (antibody, V domains shown)
VH: QVQLQESGPGLVKPSGTLSLTCDVSGGSISSNNWWSWVRQRPGKGLQWIGEIYHNENTNYNPSLKSRVIMSIDKSKNQFSLKLTSVTAADTAVYYCARGDVLDWFDPWGQGTLVTVSS
VL: QSALTQPASVSGSPGQSTTISCTGTSSDVGGYNYVSWYQQYPGKAPKLMIYDVTNRPSGVSHRFSGSKSGNTASLTISGLQAEDEADYYCSSYTSSSTVIFGGGTKLTVLG
B11: mAb14235 (antibody, V domains shown)
VH: QITLKESGPTLVKPTQTLTLTCTFSGFSLNTGGVGVGWIRQPPGNALEWLALIYWDDDKRYNPSLKTRLTISKDTSKNQVVLTMTNMDPVDTATYFCAHLTIAVIVDFWGQGTLVTVSS
VL: B7 VL with G24A, L29V, V31T, F32Y, Y38F, Q40H, S96T, T98I
B12: mAb14289 (antibody, V domains shown)
VH: QVQLVQSGPEVKKPGASVKVSCKASGYTFTSYAISWVRQAPGQGLEWMGWISAYNGNTNYAQKLQGRVTMTTDTFTSTAYMELRSLRSDDTAVYYCAVPADHITFDYWGQGTLVTVSS
VL: EIVLTQSPGTLSLSPGERATLSCRASQSVSSYLAWYQQKPGQAPRLLIHGASSRATGIPDRFSGSGSGTDFTLTISRLEPEDFAVYYCQQYGSSFLTFGGGTKVEIKR
B13: mAb13458 (antibody, V domains shown)
VH: EVQLVESGGGLVQPGRSLRLSCAASGFTFDDYAMHWVRQAPGKGLEWVSGISWNSGSIGYADSVKGRFTISRDNAKNSLYLQMNSLRAEDTALYYCAKDIGITTPYWGQGTLVTVSS
VL: AIQMTQSPSSLSASVGDRVTITCRASQDIRNDLGWYQQKPGKAPKLLIYSASSLQTGVPSRFSGSGSGTDFTLTISSLHPEDFATYYCLQDYWYTWTFGQGTKVEIKR
B14: mAb13459 (antibody, V domains shown)
VH: B13 VH
VL: B13 VL with W93N, T95V
B15: mAb14313 (antibody, V domains shown)
VH: EVQLVESGGGLVQPGRSLRLSCVASGFTFDDSAMHWVRQPPGKGLEWVSGISWNSGIIGYAESVKGRFIISRDNAKNSLFLHMRGLRPEDTAVYYCARDRLELSYYYYGMDVWGQGTTVTVSS
VL: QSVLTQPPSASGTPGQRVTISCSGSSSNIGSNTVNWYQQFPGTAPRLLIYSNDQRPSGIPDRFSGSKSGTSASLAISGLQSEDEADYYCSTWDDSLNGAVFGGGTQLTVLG
B16: mAb14247 (antibody, V domains shown)
VH: QITLKESGPTLVKPTQTLTLTCTFSGFSLSTSAVGVGWIRQPPGKALEWLALIYWDDDKRYSPSLKSRLTITKDTSKNQLVLTMTNVDPVDTATYYCAHHTIQLIFDYWGQGTLVTVSS
VL: QSALTQPASVSGSPGQSITISCTATSSDVGNYNYVSWYQQHPGKAPKLMIYEVSNRPSGVSNRFSGSKSGNTASLTISGLQAEDEADYYCSSYTSSSTPLVFGGGTKLTVLG
B17: mAb14315 (antibody, V domains shown)
VH: QVQLVQSGAEVKKPGSSVKVSCKASGDTFSTYAINWVRQAPGQGLEWMGRFIHIFGTANYAQKFQGRVTITADESTSTAYMELRSLRSEDTAVYYCARDGVDYGDYRPDYWGQGTLVTVSS
VL: EIVLTQSPGTLSLSPGERATLSCRASQSVSSNYLAWYQQKPGQAPRLLIYGASSRATGIPERFSGSGSGTDFTLTISRLEPEDFAVYYCQQYGSSLYTFGQGTKLEIKR
B18: mAb14257 (antibody, V domains shown)
VH: EVQLVESGGGLVQPGGSLRLSCAASGFTVSRSYMNWVRQAPGKGLEWVSVVFTGGTTKHTDSVKGRFTISRDNSMNTLYLQMNSLRPEDTAVYYCARVAIVETTGAFDIWGQGTMVTVSS
VL: QSVLTQPPSVSGAPGQRVTISCTGTSSNIGADFDVHWYQQFPGTAPKLLIYGHTNRPSGIPDRFSGSKSGTSASLAITGLQAEDEADYYCQSYDSSLSGSVVFGGGTKLTVLG
B19: mAb14255 (antibody, V domains shown)
VH: QVQLQESGPGLVKPSETLSLTCTVSGGSISGYYWSWIRQPPGKGLDWIGYIYYRGNTNYNPSLKSRVTISVDTSNNQFSLKLSSVTAADTAVYYCARYGEGYGDASGYHFDYWGQGTLVTVSS
VL: QSALTQPASVSGSPGQSITISCTGTSSDVGSYNLVSWYQQHPGKAPKLMIYEDSKRPSGVANPFSGSKSGNTASLTISGLQAEDEADYYCSSYAGSSTWVFGGGTKLTVLG

target: human FcγR3a 176Val allotype receptor (human, UniProt P08637 17-254); experiment: cell-based or functional assay

| Binder | EC50 (M), Jurkat/CD20/spike | Fold induction, Jurkat CD20 | Fold induction, Jurkat/CD20/spike |
| --- | --- | --- | --- |
| B1 | 2.8e-10 M | 1.1 fold | 11 fold |
| B2 | 3.94e-10 M | 1 fold | 8.7 fold |
| B3 | 1.23e-09 M | 1 fold | 6.2 fold |
| B4 | 5.1e-10 M | 1 fold | 6.7 fold |

target: SARS-COV-2 RBD extracellular domain expressed with a C-terminal myc-myc-hexahistidine tag (SARS-CoV-2); experiment: SPR (Biacore), mAb captured by anti-human Fc, RBD-mmH in solution, 25 C

| Binder | Kd | koff | kon | t½ |
| --- | --- | --- | --- | --- |
| B5 | 0.0594 nM | 4.61e-05 s⁻¹ | 774000 M⁻¹ s⁻¹ | 251 min |
| B6 | 3.89 nM | 0.000778 s⁻¹ | 200000 M⁻¹ s⁻¹ | 14.8 min |
| B7 | 0.824 nM | 0.000549 s⁻¹ | 666000 M⁻¹ s⁻¹ | 21 min |
| B8 | 0.854 nM | 0.00161 s⁻¹ | 1.89e+06 M⁻¹ s⁻¹ | 7.2 min |
| B9 | 0.914 nM | 0.000548 s⁻¹ | 600000 M⁻¹ s⁻¹ | 21.1 min |
| B10 | 1.08 nM | 0.00158 s⁻¹ | 1.46e+06 M⁻¹ s⁻¹ | 7.3 min |
| B11 | 1.33 nM | 0.00105 s⁻¹ | 789000 M⁻¹ s⁻¹ | 11 min |
| B12 | 1.36 nM | 0.00158 s⁻¹ | 1.16e+06 M⁻¹ s⁻¹ | 7.3 min |
| B13 | 1.53 nM | 0.00139 s⁻¹ | 909000 M⁻¹ s⁻¹ | 8.3 min |
| B14 | 2.51 nM | 0.00174 s⁻¹ | 693000 M⁻¹ s⁻¹ | 6.6 min |
| B15 | 1.53 nM | 0.00217 s⁻¹ | 1.42e+06 M⁻¹ s⁻¹ | 5.3 min |
| B16 | 1.94 nM | 0.00163 s⁻¹ | 838000 M⁻¹ s⁻¹ | 7.1 min |
| B17 | 2.49 nM | 0.00102 s⁻¹ | 407000 M⁻¹ s⁻¹ | 11.4 min |
| B18 | 2.8 nM | 0.00952 s⁻¹ | 3.4e+06 M⁻¹ s⁻¹ | 1.2 min |
| B19 | 2.84 nM | 0.00499 s⁻¹ | 1.75e+06 M⁻¹ s⁻¹ | 2.3 min |
